In the experiment the target is human CTLA-4 (human, UniProt P16410). The experiment in a line: BLI. Background: Biolayer interferometry detects binding as a change in optical thickness at a sensor tip.
Sequence of human CTLA-4 (P16410 36-161): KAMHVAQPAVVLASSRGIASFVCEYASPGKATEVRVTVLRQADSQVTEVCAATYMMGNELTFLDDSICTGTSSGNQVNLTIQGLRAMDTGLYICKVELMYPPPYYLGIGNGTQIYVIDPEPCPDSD

B1: GBD008-hS005-5 (designed binder)
chain: EVQLVESGGGLVQPGGSLRLSCAASGRTASSNAMAWFRQAPGKEREFVSAISATGGLTAYADSVKGRFTISRDNSKNTLYLQMNSLRAEDTAVYIGAVGRERWYLRHTENEYDYWGQGTLVTVSS
The term Kd denotes the concentration at which binding is half-saturated. Read a high Kd as a looser complex. The molecule B1 registered a Kd of 0.155 nM.

B2: GBD008-hS005 (designed binder)
chain: QVQLVESGGGLVEAGGSLRLSCATSGRTASSNAMAWFRQAPGKEREFVAAISATGGLTAYADSVKGRFTISRDNSKNAVYLQMNTLKPEDTAVYIGAVGRERWYLRHTENEYDYWGRGAQVTVSS
B2: the Kd came to 0.269 nM.

For the origin of these results see US20260374871 (published 2026).
